This assay addresses actin filament (UniProt P68135). Nature of the assay: fluorescence microscopy in a microfluidics chamber.

What is called Kd is the concentration at which binding is half-saturated. In turn, “fascin (from UniProt Q16658 1-493) (natural protein)” had a dissociation constant (Kd) of 75 nM.
